Measured values published in the supplement of paper PMC9112550, “Optimization of the antimicrobial peptide Bac7 by deep mutational scanning” (BMC Biology, 2022).

Test system: Escherichia coli TOP10
Test: shrunken log2 fold change of peptide-encoding DNA abundance (4.5 h post-induction vs induction); higher = less antimicrobial activity (less host growth inhibition)
Conditions: time post-induction: 4.5 h; library: site-saturation at positions 5, 18, 19, 20
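Also: peptides expressed intracellularly from a pBAD plasmid library in pooled LB shake-flask culture, induced with 0.3% L-arabinose, DNA abundance read by NGS, three biological replicates, DESeq2 with apeglm shrinkage.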

| Sequence | shrunken log2 fold change |
| --- | --- |
| RRIRFRPPRLPRPRPRPHVIPRP | -0.196 |
| RRIRFRPPRLPRPRPRPHVSPRP | -0.135 |
| RRIRFRPPRLPRPRPRPHWSPRP | -0.54 |
| RRIRFRPPRLPRPRPRPHYGPRP | 0.0398 |
| RRIRFRPPRLPRPRPRPHYRPRP | -0.206 |
| RRIRFRPPRLPRPRPRPHYTPRP | -0.385 |
| RRIRFRPPRLPRPRPRPIAYPRP | -0.156 |
| RRIRFRPPRLPRPRPRPIDTPRP | -0.127 |
| RRIRFRPPRLPRPRPRPIDWPRP | -0.0094 |
| RRIRFRPPRLPRPRPRPIFFPRP | -0.137 |
| RRIRFRPPRLPRPRPRPIFIPRP | -0.777 |
| RRIRFRPPRLPRPRPRPIFLPRP | -0.196 |
| RRIRFRPPRLPRPRPRPIGFPRP | -0.27 |
| RRIRFRPPRLPRPRPRPIGMPRP | -0.0266 |
| RRIRFRPPRLPRPRPRPIIAPRP | -0.413 |
| RRIRFRPPRLPRPRPRPIIYPRP | -0.671 |
| RRIRFRPPRLPRPRPRPILAPRP | 0.0156 |
| RRIRFRPPRLPRPRPRPIMEPRP | -0.319 |
| RRIRFRPPRLPRPRPRPIMTPRP | -0.368 |
| RRIRFRPPRLPRPRPRPIPNPRP | -0.361 |
| RRIRFRPPRLPRPRPRPIPTPRP | 0.0793 |
| RRIRFRPPRLPRPRPRPIPWPRP | -0.14 |
| RRIRFRPPRLPRPRPRPIQVPRP | -0.228 |
| RRIRFRPPRLPRPRPRPIVCPRP | -0.406 |
| RRIRFRPPRLPRPRPRPIVSPRP | 0.303 |

| Sequence | shrunken log2 fold change |
| --- | --- |
| RRIRFRPPRLPRPRPRPIWGPRP | 0.0125 |
| RRIRFRPPRLPRPRPRPIYAPRP | -0.143 |
| RRIRFRPPRLPRPRPRPIYEPRP | -0.632 |
| RRIRFRPPRLPRPRPRPKCIPRP | -0.338 |
| RRIRFRPPRLPRPRPRPKCYPRP | -0.233 |
| RRIRFRPPRLPRPRPRPKDPPRP | 0.216 |
| RRIRFRPPRLPRPRPRPKFIPRP | -1.02 |
| RRIRFRPPRLPRPRPRPKGAPRP | -0.0295 |
| RRIRFRPPRLPRPRPRPKGYPRP | 0.00663 |
| RRIRFRPPRLPRPRPRPKHKPRP | -0.265 |
| RRIRFRPPRLPRPRPRPKIRPRP | -0.226 |
| RRIRFRPPRLPRPRPRPKKGPRP | 0.106 |
| RRIRFRPPRLPRPRPRPKKMPRP | 0.153 |
| RRIRFRPPRLPRPRPRPKKNPRP | 0.0769 |
| RRIRFRPPRLPRPRPRPKLQPRP | -0.0358 |
| RRIRFRPPRLPRPRPRPKLRPRP | 0.147 |
| RRIRFRPPRLPRPRPRPKNIPRP | -0.485 |
| RRIRFRPPRLPRPRPRPKNVPRP | 0.04 |
| RRIRFRPPRLPRPRPRPKPDPRP | 0.463 |
| RRIRFRPPRLPRPRPRPKQCPRP | -0.0712 |
| RRIRFRPPRLPRPRPRPKQFPRP | 0.058 |
| RRIRFRPPRLPRPRPRPKRPPRP | 0.755 |
| RRIRFRPPRLPRPRPRPKRYPRP | 0.0178 |
| RRIRFRPPRLPRPRPRPKTIPRP | -0.223 |
| RRIRFRPPRLPRPRPRPKTKPRP | 0.0287 |

| Sequence | shrunken log2 fold change |
| --- | --- |
| RRIRFRPPRLPRPRPRPKVYPRP | -0.382 |
| RRIRFRPPRLPRPRPRPKWDPRP | 0.117 |
| RRIRFRPPRLPRPRPRPKWEPRP | 0.223 |
| RRIRFRPPRLPRPRPRPKWPPRP | 0.27 |
| RRIRFRPPRLPRPRPRPLAFPRP | -0.134 |
| RRIRFRPPRLPRPRPRPLCQPRP | -0.12 |
| RRIRFRPPRLPRPRPRPLDFPRP | -0.325 |
| RRIRFRPPRLPRPRPRPLDHPRP | -0.359 |
| RRIRFRPPRLPRPRPRPLDRPRP | 0.163 |
| RRIRFRPPRLPRPRPRPLFSPRP | -0.376 |
| RRIRFRPPRLPRPRPRPLFWPRP | 0.201 |
| RRIRFRPPRLPRPRPRPLHNPRP | -0.398 |
| RRIRFRPPRLPRPRPRPLHPPRP | -0.0197 |
| RRIRFRPPRLPRPRPRPLLNPRP | -0.549 |
| RRIRFRPPRLPRPRPRPLMSPRP | -0.0355 |
| RRIRFRPPRLPRPRPRPLPRPRP | 0.669 |
| RRIRFRPPRLPRPRPRPLPTPRP | 0.336 |
| RRIRFRPPRLPRPRPRPLRHPRP | 0.353 |
| RRIRFRPPRLPRPRPRPLSQPRP | -0.271 |
| RRIRFRPPRLPRPRPRPLTWPRP | -0.163 |
| RRIRFRPPRLPRPRPRPLVEPRP | -0.0559 |
| RRIRFRPPRLPRPRPRPLVGPRP | -0.0413 |
| RRIRFRPPRLPRPRPRPLWKPRP | -0.0606 |
| RRIRFRPPRLPRPRPRPLYLPRP | -0.826 |
| RRIRFRPPRLPRPRPRPMAVPRP | -0.0113 |

| Sequence | shrunken log2 fold change |
| --- | --- |
| RRIRFRPPRLPRPRPRPMCTPRP | 0.0284 |
| RRIRFRPPRLPRPRPRPMDHPRP | -0.131 |
| RRIRFRPPRLPRPRPRPMDVPRP | -0.0444 |
| RRIRFRPPRLPRPRPRPMDYPRP | -0.00172 |
| RRIRFRPPRLPRPRPRPMEMPRP | -0.0294 |
| RRIRFRPPRLPRPRPRPMFQPRP | -0.336 |
| RRIRFRPPRLPRPRPRPMGIPRP | -0.23 |
| RRIRFRPPRLPRPRPRPMGRPRP | 0.103 |
| RRIRFRPPRLPRPRPRPMGWPRP | 0.0642 |
| RRIRFRPPRLPRPRPRPMHAPRP | 0.0753 |
| RRIRFRPPRLPRPRPRPMHDPRP | -0.236 |
| RRIRFRPPRLPRPRPRPMHEPRP | 0.085 |
| RRIRFRPPRLPRPRPRPMHSPRP | -0.263 |
| RRIRFRPPRLPRPRPRPMKDPRP | -0.47 |
| RRIRFRPPRLPRPRPRPMLPPRP | -0.184 |
| RRIRFRPPRLPRPRPRPMMEPRP | -0.426 |
| RRIRFRPPRLPRPRPRPMMPPRP | -0.0286 |
| RRIRFRPPRLPRPRPRPMPWPRP | 0.157 |
| RRIRFRPPRLPRPRPRPMQAPRP | 0.119 |
| RRIRFRPPRLPRPRPRPMQCPRP | 0.188 |
| RRIRFRPPRLPRPRPRPMRLPRP | 0.947 |
| RRIRFRPPRLPRPRPRPMSGPRP | -0.0751 |
| RRIRFRPPRLPRPRPRPMTAPRP | -0.00148 |
| RRIRFRPPRLPRPRPRPMTKPRP | 0.0716 |
| RRIRFRPPRLPRPRPRPMTQPRP | -0.421 |

| Sequence | shrunken log2 fold change |
| --- | --- |
| RRIRFRPPRLPRPRPRPMVDPRP | -0.304 |
| RRIRFRPPRLPRPRPRPMVLPRP | -0.0723 |
| RRIRFRPPRLPRPRPRPMVPPRP | 0.0354 |
| RRIRFRPPRLPRPRPRPMWKPRP | -0.0148 |
| RRIRFRPPRLPRPRPRPMWPPRP | -0.0873 |
| RRIRFRPPRLPRPRPRPMWTPRP | -0.37 |
| RRIRFRPPRLPRPRPRPNAQPRP | 0.0328 |
| RRIRFRPPRLPRPRPRPNCCPRP | 0.0101 |
| RRIRFRPPRLPRPRPRPNCTPRP | 0.0099 |
| RRIRFRPPRLPRPRPRPNCVPRP | -0.321 |
| RRIRFRPPRLPRPRPRPNDHPRP | -0.512 |
| RRIRFRPPRLPRPRPRPNDSPRP | -0.0675 |
| RRIRFRPPRLPRPRPRPNEHPRP | -0.525 |
| RRIRFRPPRLPRPRPRPNGKPRP | 0.0809 |
| RRIRFRPPRLPRPRPRPNGPPRP | -0.0934 |
| RRIRFRPPRLPRPRPRPNKDPRP | 0.539 |
| RRIRFRPPRLPRPRPRPNKEPRP | 0.0307 |
| RRIRFRPPRLPRPRPRPNMIPRP | -0.495 |
| RRIRFRPPRLPRPRPRPNPGPRP | 0.159 |
| RRIRFRPPRLPRPRPRPNPKPRP | 0.0977 |
| RRIRFRPPRLPRPRPRPNPQPRP | 0.17 |
| RRIRFRPPRLPRPRPRPNQCPRP | -0.511 |
| RRIRFRPPRLPRPRPRPNQTPRP | 0.275 |
| RRIRFRPPRLPRPRPRPNQWPRP | -0.21 |
| RRIRFRPPRLPRPRPRPNRGPRP | 0.149 |

| Sequence | shrunken log2 fold change |
| --- | --- |
| RRIRFRPPRLPRPRPRPNSCPRP | -0.895 |
| RRIRFRPPRLPRPRPRPNWKPRP | 0.0201 |
| RRIRFRPPRLPRPRPRPPAYPRP | 0.127 |
| RRIRFRPPRLPRPRPRPPCDPRP | 0.0212 |
| RRIRFRPPRLPRPRPRPPCMPRP | -0.125 |
| RRIRFRPPRLPRPRPRPPDIPRP | -0.329 |
| RRIRFRPPRLPRPRPRPPEPPRP | 0.54 |
| RRIRFRPPRLPRPRPRPPHHPRP | -0.0595 |
| RRIRFRPPRLPRPRPRPPHIPRP | -0.21 |
| RRIRFRPPRLPRPRPRPPHNPRP | 0.0036 |
| RRIRFRPPRLPRPRPRPPIEPRP | -0.201 |
| RRIRFRPPRLPRPRPRPPKHPRP | 0.292 |
| RRIRFRPPRLPRPRPRPPKIPRP | 0.145 |
| RRIRFRPPRLPRPRPRPPPMPRP | 1.17 |
| RRIRFRPPRLPRPRPRPPPRPRP | 1.84 |
| RRIRFRPPRLPRPRPRPPQIPRP | 0.241 |
| RRIRFRPPRLPRPRPRPPQLPRP | 0.274 |
| RRIRFRPPRLPRPRPRPPQSPRP | 0.334 |
| RRIRFRPPRLPRPRPRPPREPRP | 0.43 |
| RRIRFRPPRLPRPRPRPPSWPRP | 0.4 |
| RRIRFRPPRLPRPRPRPPTAPRP | 0.429 |
| RRIRFRPPRLPRPRPRPPVAPRP | 0.987 |
| RRIRFRPPRLPRPRPRPPWTPRP | 0.123 |
| RRIRFRPPRLPRPRPRPPYHPRP | -0.454 |
| RRIRFRPPRLPRPRPRPQDVPRP | -0.193 |
